Measured values taken from US20040002582A1 (University of Texas, published 2004).
No end group written: not given here.

Assays:
POW-E-D3 = biological target: T1, POW-E-D3 (Powassan virus, UniProt Q04538 579-674)
T1 sequence: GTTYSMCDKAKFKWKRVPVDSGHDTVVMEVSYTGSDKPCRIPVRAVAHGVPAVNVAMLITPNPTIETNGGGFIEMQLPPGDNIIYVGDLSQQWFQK

LGT virus = biological target: T2, LGT virus (Langat virus, UniProt P29837 281-776); assay: cell-based or functional assay
T2 sequence: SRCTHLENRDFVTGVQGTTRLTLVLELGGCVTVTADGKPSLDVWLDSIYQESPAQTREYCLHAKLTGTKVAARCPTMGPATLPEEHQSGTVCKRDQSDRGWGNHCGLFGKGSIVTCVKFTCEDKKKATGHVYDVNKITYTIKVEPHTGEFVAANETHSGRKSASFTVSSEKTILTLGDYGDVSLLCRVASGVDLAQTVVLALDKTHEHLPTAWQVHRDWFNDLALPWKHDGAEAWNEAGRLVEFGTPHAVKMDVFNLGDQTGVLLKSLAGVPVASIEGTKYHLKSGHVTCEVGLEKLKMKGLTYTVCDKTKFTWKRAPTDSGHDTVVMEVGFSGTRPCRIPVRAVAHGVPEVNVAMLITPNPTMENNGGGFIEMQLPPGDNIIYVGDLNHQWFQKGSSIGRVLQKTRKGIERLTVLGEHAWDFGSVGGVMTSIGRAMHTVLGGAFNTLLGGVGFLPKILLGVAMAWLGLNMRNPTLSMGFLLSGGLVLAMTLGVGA

RCCHPQCKEGKKCR (designed binder, not fully specified; cysteine pairing not given here) [MP-100]
level of enrichment (ratio of enriched signal/library signal) (POW-E-D3): > 1.5 ratio of enriched signal/library signal
reduction of viral titer in Vero cells at 24 hpi (LGT virus): ~300 fold
reduction of viral titer in Vero cells at 36 hpi (LGT virus): ~100 fold
